Laboratory results from PMC7708082.

Biological target: translesion synthesis (TLS) polymerase ι (human (endogenous in K562)) (UniProt Q9UNA4)
Test: proximity ligation

Chain of UniProt Q9UNA4 (Q9UNA4 whole entry): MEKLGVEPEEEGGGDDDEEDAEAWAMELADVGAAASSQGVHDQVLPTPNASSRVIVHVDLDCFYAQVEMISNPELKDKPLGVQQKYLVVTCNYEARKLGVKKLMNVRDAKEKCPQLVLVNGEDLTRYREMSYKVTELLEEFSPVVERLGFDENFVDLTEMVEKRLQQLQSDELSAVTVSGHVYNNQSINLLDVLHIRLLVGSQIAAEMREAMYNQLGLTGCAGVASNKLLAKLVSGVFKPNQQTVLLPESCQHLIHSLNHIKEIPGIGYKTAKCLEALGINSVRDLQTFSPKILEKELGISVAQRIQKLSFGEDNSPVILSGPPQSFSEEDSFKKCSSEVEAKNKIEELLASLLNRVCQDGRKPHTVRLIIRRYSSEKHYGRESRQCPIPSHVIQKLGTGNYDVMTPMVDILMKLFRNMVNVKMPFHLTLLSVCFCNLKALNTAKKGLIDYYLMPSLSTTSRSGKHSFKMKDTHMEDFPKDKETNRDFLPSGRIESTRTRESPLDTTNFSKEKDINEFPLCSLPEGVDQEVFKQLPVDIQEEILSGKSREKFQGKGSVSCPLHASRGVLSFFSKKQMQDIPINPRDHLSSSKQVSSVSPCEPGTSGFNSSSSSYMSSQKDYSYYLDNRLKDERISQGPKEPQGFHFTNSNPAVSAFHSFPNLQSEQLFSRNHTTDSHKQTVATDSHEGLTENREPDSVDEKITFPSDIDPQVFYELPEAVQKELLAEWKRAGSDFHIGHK

With “p53(22Q/23S) (from UniProt P04637 1-393) (natural protein)” the reduction in PLA-foci numbers against p53(WT) was 64%.
